Data on two substances can be found in paper PMC8485325, “Penetrating the Blood-Brain Barrier with New Peptide–Porphyrin Conjugates Having anti-HIV Activity” (Bioconjugate Chemistry, 2021).

Ends that are not written are not given here.

Series [1] has as its system bEnd.3 cell monolayers. As for the experimental part:
(§1) Figure 4 PPCs translocation across a bEnd.3 in vitro BBB model. (A) bEnd.3 in vitro BBB model transwell system. The insert, or apex, corresponds to the blood side, while the base (bottom chamber) corresponds to the brain side. (B) After formation of a monolayer, 10 μM of each conjugate was added to the apical side of the tissue culture inserts. After incubation for 24 h, samples from the basolateral side were collected, and the percentage of translocation of each conjugate (black) was calculated. FD4 permeability (gray) was measured to determine monolayer integrity post-PPCs translocation.
After 24 h incubation with conjugates, an in vitro integrity assay was performed.[19] Briefly, cells were washed twice with PBS and once with DMEM medium without phenol red. Then, previously diluted 4 kDa fluorescein isothiocyanate-dextran (FD4) (Sigma-Aldrich, Spain) in DMEM without phenol red to an absorbance of 0.1 was added to the apical side and incubated for 2 h. Samples were collected from the apical and basolateral side, and fluorescence intensity was measured with λext = 493 nm and λem = 520 nm, using a Varioskan Lux plate reader. The integrity of the barrier was determined as follows: [drawing 2] 2 where Fi is the recovered fluorescence intensity, Fcells is the recovered fluorescence intensity from cells without FD4 incubation, FFD4 is the fluorescence intensity of total FD4 initially added to the transwell apical side, and FMedium is the fluorescence intensity of DMEM medium without phenol red.

Series [2] concerns bEnd.3 cells. The experiment in a line: Cell viability assay (CellTiter-Blue). The format is cell-based, murine. The protocol:
bEnd.3 cells were plated in fibronectin precoated 96-well flat-bottom clear black polystyrene plate (Corning, New York, USA) as previously described. Cells were then cultured in complete medium at 37 °C in a 5% CO2 atmosphere, with medium replaced every 2 days. […] Viability was evaluated by the CellTiter-Blue assay (Promega, Wisconsin, USA), based on resazurin reduction into highly fluorescent resorufin by metabolically active cells. By distinguishing metabolic from nonmetabolic cells, cytotoxicity can be indirectly determined. After incubation, cells were washed with PBS, pH 7.4, and 15 μL of CellTiterBlue reagent in 100 μL of complete medium was added to the cells and incubated for 1.5 h at 37 °C in 5% CO2. Fluorescence was measured at 590 nm, with excitation at 560 nm, using an Infinite F200 plate reader (Tecan, Switzerland). Complete medium and medium containing 0.25% Triton X-100 were used as positive and negative controls (100% and 0% viability), respectively. Cell viability (%) was determined using the following equation: [drawing 5] 5 where […] is the fluorescence emission of conjugate-treated cells, Fnontreated is the fluorescence emission of the control nontreated cells, and Fblank is the fluorescent emission of CellTiter reagent in complete medium without cells.

For series [3], the system named is bEnd.3 cell monolayers. The experiment in a line: In vitro BBB translocation assay (bEnd.3 transwell model).
Description: Assessment of PPC efficacy in BBB translocation was done in a transwell setup (Figure 4A) using bEnd.3 cell monolayers.[44] The bEnd.3 in vitro BBB model consists of a monolayer of cells expressing a range of essential BBB transporters, also bearing the low permeability characteristic of the BBB, suitable for this study.[44]−[46]
as §1
An in vitro BBB model consisting of endothelial cells growing on the apical side of a porous membrane was used.[46] bEnd.3 cells (ATTCC-CRL2299) were cultured as a monolayer on T-flasks in DMEM supplemented with 10% fetal bovine serum (FBS), 1% penicillin/streptomycin. Cells were grown in a humidified atmosphere of 5% CO2 at 37 °C (MCO-18AIC (UV), Sanyo, Japan) with the medium changed every other day. Cells were allowed to grow until confluence in a culture T-flask, and then carefully harvested with trypsin-EDTA and seeded (3500 cells/well) onto fibronectin-coated tissue culture 24-well inserts (transparent polyester membrane with 1.0 μm pores) (BD Falcon, USA). The medium was changed every other day for 10 days, after which cells were washed twice with 1× PBS and once with DMEM medium without phenol red. Next, conjugates diluted in DMEM without phenol red to a final concentration of 10 μM were added to the apical side of the in vitro BBB model (Figure 4A). Experiments were performed on different days using independently grown cell cultures.
The translocation of conjugates was determined by fluorescence intensity (λexc = 380 nm and λem = 625 nm for MP conjugates, and λexc = 380 nm and λem = 675 nm for PP conjugates). P3-CF and P5-CF, peptides labeled with 5(6)-Carboxyfluorescein (CF), were used as positive translocation controls (λexc = 492 nm and λem = 517 nm). After 24 h incubation, samples from the apical and basolateral side were collected and analyzed. Fluorescence was measured using a Varioskan Lux plate reader (Thermo Scientific, MA, USA). The percentage (%) of translocation was calculated using the following equation: [drawing 1] 1 where Fi is the recovered fluorescence intensity, Fcells is the recovered fluorescence intensity from cells without the conjugate, and Fconjugate is the fluorescence intensity of total peptide initially added to the transwell apical side.

Series [4] relates to human erythrocytes. The experiment in a line: Hemolysis assay. The format is cell-based. As for the experimental part:
Plates were incubated for 1 h at 37 °C with 100 rpm stirring, then centrifuged for 5 min at 4000 rpm, 4 °C, and supernatants were transferred to a 96-well flat-bottom polystyrene plate (Corning). Hemolysis was assessed by hemoglobin (Hb) release, measured by absorbance at 415 nm in a Varioskan LUXTM microplate reader (Thermo Fisher Scientific, Inc.). As porphyrin and Hb spectra are partially overlapping, to exclude porphyrin interference in Hb quantification a blank reading of each PPC (no hRBCs, TN buffer +1% DMSO) was subtracted from each measurement. TN buffer (+1% DMSO, no conjugate) and hRBCs with 1% Triton X-100 were used as negative and positive controls, respectively. Hemolysis (%) was determined using the following equation: [drawing 6] 6 where Abstreated is the absorbance of hRBC treated with the conjugates, Absconjugate is the absorbance from each conjugate concentration without hRBCs, AbsTriton is the absorbance of Triton X-100 treated hRBCs, and Absbuffer is the absorbance of TN buffer alone. HC50 values were determined by GraphPad Prism 8 software using a log(inhibitor) vs normalized response (variable slope). Experiments were performed using 3 different blood donors.

For “MP-P5: mesoporphyrin IX coupled to the N-terminal amino group of peptide P5 (SGTQEEY-amide) ({mesoporphyrin IX}-SGTQEEY-NH2)”, the “% Base (RFI), FD4 Permeability (monolayer integrity post-translocation)” value in series [1] amounted to 9.4%. Besides, the CC50 in series [2] was over 50 µM. Further, in series [3], the “BBB translocation (in words)” value is listed as “able to effectively pass the BBB”. Besides, the “Hemolytic activity (in words)” value in series [4] was “totally lacked hemolytic activity”.
On the same counts, the results for “P4-MP: mesoporphyrin IX coupled to the C-terminal Lys side chain of peptide P4 (AGILKRWK-amide) (AGILKRWK(mesoporphyrin IX)-NH2)” are 15.3%, over 50 µM, “able to effectively pass the BBB” and “totally lacked hemolytic activity”.
